Target: LexA-FKBP12 fusion protein (human FKBP12, bait plasmid pIC504) (human, UniProt P62942 1-104)
Assay: cell-based or functional assay

LexA-FKBP12 fusion protein (human FKBP12, bait plasmid pIC504), sequence (P62942 other isoform, or with tags, fused parts or gaps limits assumed): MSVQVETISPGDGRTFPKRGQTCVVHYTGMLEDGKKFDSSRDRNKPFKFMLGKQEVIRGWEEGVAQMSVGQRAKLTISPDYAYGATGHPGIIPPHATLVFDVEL

B1: human RAPT1 rapamycin-binding domain fused to the VP16 activation domain (other)
chain: VSEELIRVAILWHEMWHEGLEEASRLYFGERNVKGMFEVLEPLHAMMERGPQTLKETSFNQAYGRDLMEAQEWCRKYMKSGNVKDLTQAWDLYYHVFRRISKQLPQLTSLELQYVSPKLLMCRDLELAVPGTYDPNQPIIRIQSIAPSLQVITSKQRPRKLTLMGSNGHEFVF
β-galactosidase activity (lacZ reporter, chemiluminescent substrate): ~1000 fold
